Publication PMC3193538
[ ]: non-standard residue; d: D form.

B1: G5-3RGD (generation 5 PAMAM dendrimer displaying 3 cyclic RGD peptides) (peptide)
peptide: cyclo(RGD[dF]C)
modifications: also: conjugated to G5 PAMAM dendrimer, 3 peptides per dendrimer
B2: G5-10RGD (generation 5 PAMAM dendrimer displaying 10 cyclic RGD peptides) (peptide)
peptide: cyclo(RGD[dF]C)
modifications: also: conjugated to G5 PAMAM dendrimer, 10 peptides per dendrimer
B3: G5-2RGD (generation 5 PAMAM dendrimer displaying 2 cyclic RGD peptides) (peptide)
peptide: cyclo(RGD[dF]C)
modifications: also: conjugated to G5 PAMAM dendrimer, 2 peptides per dendrimer
B4: G5-7RGD (generation 5 PAMAM dendrimer displaying 7 cyclic RGD peptides) (peptide)
peptide: cyclo(RGD[dF]C)
modifications: also: conjugated to G5 PAMAM dendrimer, 7 peptides per dendrimer

What follows are binders tested against human integrin protein αvβ3 (human) (UniProt P06756) (assay: SPR).

koff	Binder
0.00136 s⁻¹	B1
0.00254 s⁻¹	B2
0.00132 s⁻¹	B3
0.00155 s⁻¹	B4
